# The RNAGym collection of RNA variant scans (doi:10.1073/pnas.2313332121)
# Fewer inactive variants are shown than the library holds.
# B1: TPR 5TU (parent)
# chain: GGAUCUUCUCGAUCUAACAAAAAAGACAAAUCUGCCACAAAGCUUGAGAGCAUCUUCGGAUGCAGAGGCGGCAGCCUUCGGUGGCGCGAUAGCGCCAACGUUCUCAACUAUGACACGCAAAACGCGUGCUCCGUUGAAUGGAGUUUAUCAUG
# Variants of: B1
# Assay: polymerase ribozyme fitness, log enrichment relative to wild type (log ratio); higher = more active; in vitro selection for triplet polymerase activity
# Procedure, shortened: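 Fitness is a logarithmic measure of how a genotype enriched relative to the wild type, with replicate averages weighted by inverse variance. The logarithm uses base 2, and enrichment came from Illumina sequencing of input and output libraries. Those libraries were PCR-built, transcribed mutants of each subunit of a heterodimeric triplet polymerase ribozyme, passed through one triplicate in vitro selection round that included frozen incubation at −7 °C, gel excision of extended constructs and streptavidin-bead capture. Genotypes were kept only if they had ≥10 input reads and ≥1 read per output.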
row,Variant,polymerase ribozyme fitness (log ratio)
1,GGAUCUUCUCGAUCUAACAAAAAAGACAAAUCUGCCACAAAGCUUGAGAGCAUCUUCGGAUGCAGAGGCGGCAGCCUUCGGUGGAGCGAUAGCGCCAACGUUCUCAACUAUGACACGCAUAACGCGUGCUCCGUUGAAUGGAGUUUAUCAUG [C85A A120U],-1.7
2,GGAUCUUCUCGAUCUAACAAAAAAGACAAAUCUGCCACAAAGCUUGAGAGCAUCUUCGGAUGCAGAGGCGGCAGCCUUCGGUGACGCGAUUGCGCCAACGUUCUCAACUAUGACACGCAAAACGCUUGCUCCGUUGAAUGGAUUUUAUCAUG [G84A A91U G126U G143U],≤ -4.2
3,GGAUCUUCUCGAUCUAACAAAAAAGACAAAUCUGCCUCAAAGCUUGAGAGCAUCUUCGGAUGCAGAGGCGGCAGCCUUCGGUGGCGCGAUAGCGCCAACGUUCUCAACUAUGACACGCAAGACGCGUGCUCCGUUGAAUGGAGUUUAUCAUU [A37U A121G G152U],-3.84
4,GGAUCUUCUCGAUCUAACAAAAAAGACAAAUCUGCCACAAAGCUUGAGAGCAUCUUCGGAUGCAGAGGCGGCAGCCUUCGGCGGCGCGAUAGCUCCAGCGUUCUCACCUAUGACACGCAAAACGCGUGCUCCGUUGAAUGGAGUUUAUCAUG [U82C G94U A98G A107C],≤ -4.2
5,GGAUCUUCUCGAUCUAACAAAAAAGACAAAUCUGCCACAAAGCUUGAGAGCAUCUUCGGAUGCAGAGGCGGCAGCUUUCGGUGGCGCGAUAGCACCAACGUUCUCAACUAUGACACGCAAAACGCGUGCUCCGUUGAAUGGAGUUUAUCAUG [C76U G94A],1.11
6,GGAUCUUCUCGAUCUAACAAAAAAGACAAAUCUGCCACAAAGCUUGAGAGCAUCAUCGGAUGGAGAGGCGGCAGCCUUCGGUGGCGCGAUAGCGCCAACGUUCUCAACUAUGACACGCAAUACGCGUGCUCCGUUGAAUGGAGUUUAUCAUG [U55A C63G A121U],-0.282
7,GGAUCUUCUCGAUGUAACAAAAAAGACAAAUGUGCCACAAAGCUUGAGAGCAUCUUCGGAUGCAGAGGCGGCAGCCUUCGGUGGCGCGAUAGCGCCAACGUUCUCAACUAUGACACGCAAAACGCGUGCUCCGUUGAAUGUAGUUUCUCAUG [C14G C32G G141U A147C],≤ -4.2
8,GGAUCUUCUCGAUCUAACAAAAAAGACAAAUCUGCCACAAAGCUUGAGAGCAUCUUCGGAGGCAGAGGCGGCAGCCUUCGGUGGCGCGAUAGUGCCAACGUUCUCAACUAUGACACGCAAAACGCGUGCUCCGUUGAAUGGAGUUUAUCAUG [U61G C93U],-1.89
9,GGAUCUUCUCGAUCUAACAAAAAAGACAAAUCUGCCACAAAGAUUGAGAGCAACUUAGGAUGCAGAGGCGGCAGCCUUCGGUGGCGCGAUAGCGUCAACGUUCUCAACUAUGACACGCAAAACGCGUGCUCCGUUGAAUGGAGUUUAUCAUG [C43A U53A C57A C95U],≤ -4.2
10,GGAUCUUCUCGAUCUAACAAAAAAGACAAUUCUGCCACAAAGGUUGAGAGCAUCUUCGGAUGCAGAGGCGGCAGCCUUCGGUGGCGCGAUAGCGCCAACGUUCUCAACUAUGACACGCAAAACGCGUGCUCCGUUGAAUGGAGUUUAUCAUG [A30U C43G],≤ -4.2
11,GGAUCUUCUCGAUCUAACAAAAAAGACAAAUCUGCCACAAAGCUUGAGAGCAUCUUCGGAUGCAGAGGCGGCAGCCUUCGGUGGAGCGAUAGCGCCAGCGUUCUCAACUAUGACAUGCACAACGCGUGCUCCGUUGAAUGGAGUUUUUCAUG [C85A A98G C116U A120C A147U],0.389
12,GGAUCUUCUCGAUCUAACAAAAAAGACAAAUCUGCCACAAAGCUUGAGAGCAUCUUCGGAUGCAGAGGCGGCAGCCUUCGGUGUCGCGAUAGCGCCAACGUUCGCAACUAUGACACGCAAAACGCGUGCUCCGUUGAAUGGAGUUUAUCAUG [G84U U104G],-2.26
13,GGAUCUUCUCGAUCUAACAAAAAAGACAAAUCUGCCACAAAGCUUGAGAGCACCUUCGGAUGCAGAGGCGGCAGCCUUCGGUGGCACGAUAGCGUCAACGUUCUCAACUAUGACACGCAAAACGCGUGCUCCGUUGAAUGGAGUUUAUCAUG [U53C G86A C95U],-1.78
14,GGAUCUUCUCGAUCUAACAAAAAAGACAAAUCUGCCACAAAGCUUGAGAGCAUCUUCGGAUGCAGAGGCGGCAGCCUUCGGUGGCGCGAUACCGCCAACGUUCUCAACUAUGACACGCAAAACUCGUGCUCCGUUGAAUGGAGUUUAUCAUU [G92C G124U G152U],-3.69
15,GGAUCUUCUCGAUCUAACAAAAAAGACAAAUCUGCCACAUAGCUUGAGAGCAUCUUCGGAUGCAGAGGUGGCAGCCUUCGGUGCCGCGAUAGCGCCAACGUUCUCAACUAUGACACGCAAAACGCGUGCUCCGUUGAAUGGACUUUAUCAUG [A40U C69U G84C G143C],≤ -4.2
16,GGAUCUUCUCGAUCUAACAAAAAAGACAAAUCUGCCACAAAGGUUGAGAGCAUCAUCGGAGGCAGAGGCGGCAGCCUUCGGUGGCACGGUAGCGCCAACGUUCUCAACUAUGACACGCAAAUCGCGUGCUCCGUUGAAUGGAGUUUAUCAUG [C43G U55A U61G G86A A89G A122U],≤ -4.2
17,GGAUCUUCUCGAUCUAACAAAAAAGACAAAUCUGCCACAAAGCUUGAGAGCAUGUUCGGAUGCAGAGGCGGCAGCCUUCGGUGGCGCGAUAGCGCCAACGUUAUCAACUAUGACACGCAAAACGCGUGCUCCGUUGAAUCGAGUUUAUCAUG [C54G C103A G140C],≤ -4.2
18,GGAUGUUCUCGAUCUAACAAAAAAGACAAAUCUGCCUCAAAGCUUGAGAGCAUCUUCGGAUGCAGAGGCGGCAGCCUUCGGUGGCGCGAUAGCGCCAACGUUCUCAACUAUGACACGCAAAACGCGUGCUCCGUUGAAUGUAGUUUAUCAUG [C5G A37U G141U],-1.94
19,GGAUCUUCUCGAUCUAACUAAAAAGACAAAUCUGCCACAACGCUUGAGAGCAUCUUCAGAUGCAGAGGCGGCAGCCUUCGGUGGGGCGAUAGCGCCAACGUUCUCAACUAUGACACGCAAAACGCGUGCUCCGUUGAAUGGAGUUUAUCAUG [A19U A41C G58A C85G],-2.71
